Data from article PMC12364357, “Glutamate dehydrogenase from Pantoea ananatis: A new bacterial enzyme with dual coenzyme specificity” (PLOS One, 2025).

Legend:
Assay in all cases: purified protein
[1] = test system: NC(=O)C1=CN([C@@H]2O[C@H](COP(=O)(O)OP(=O)(O)OC[C@H]3O[C@@H](n4cnc5c(N)ncnc54)[C@H](O)[C@@H]3O)[C@@H](O)[C@H]2O)C=CC1; settings: reductive amination, 5 mM α-KG, 50 mM NH4Cl, 80 mM Tris-HCl pH 8.0, 25 °C, pH 8.0
[2] = test system: NC(=O)C1=CN([C@@H]2O[C@H](COP(=O)(O)OP(=O)(O)OC[C@H]3O[C@@H](n4cnc5c(N)ncnc54)[C@H](OP(=O)(O)O)[C@@H]3O)[C@@H](O)[C@H]2O)C=CC1; settings: reductive amination, 5 mM α-KG, 50 mM NH4Cl, 80 mM Tris-HCl pH 8.0, 25 °C, pH 8.0
[3] = test system: NC(=O)c1ccc[n+]([C@@H]2O[C@H](COP(=O)(O)OP(=O)(O)OC[C@H]3O[C@@H](n4cnc5c(N)ncnc54)[C@H](O)[C@@H]3O)[C@@H](O)[C@H]2O)c1; settings: oxidative deamination, 150 mM L-Glu, 80 mM CHES pH 9.5, 25 °C, pH 9.5
[4] = test system: NC(=O)c1ccc[n+]([C@@H]2O[C@H](COP(=O)(O)OP(=O)(O)OC[C@H]3O[C@@H](n4cnc5c(N)ncnc54)[C@H](OP(=O)(O)O)[C@@H]3O)[C@@H](O)[C@H]2O)c1; settings: oxidative deamination, 150 mM L-Glu, 80 mM imidazole pH 6.0, 25 °C, pH 6.0
O=C(O)CCC(=O)C(=O)O = settings: reductive amination, 0.2 mM NADH, 50 mM NH4Cl, 80 mM Tris-HCl pH 8.0, 25 °C, pH 8.0

## GdhPa (Pantoea ananatis LMG 5342)
[1]
  Km: 70 ± 14 µM
  Vmax: 5.43 µmol/min/mg
  kcat: 4.21 s⁻¹
  kcat/Km: 60100 M⁻¹ s⁻¹
[2]
  Km: 78 ± 17 µM
  Vmax: 6.29 µmol/min/mg
  kcat: 4.87 s⁻¹
  kcat/Km: 62500 M⁻¹ s⁻¹
[3]
  Km: 900 ± 60 µM
  Vmax: 11.6 µmol/min/mg
  kcat: 8.97 s⁻¹
  kcat/Km: 9960 M⁻¹ s⁻¹
[4]
  Km: 440 ± 50 µM
  Vmax: 0.67 µmol/min/mg
  kcat: 0.52 s⁻¹
  kcat/Km: 1180 M⁻¹ s⁻¹
O=C(O)CCC(=O)C(=O)O
  Km: 1300 ± 210 µM
  Vmax: 5.93 µmol/min/mg
  kcat: 4.6 s⁻¹
  kcat/Km: 3540 M⁻¹ s⁻¹
